Results: patent US7115410

Key:
[1] = target: APP 751 wild type (expressed from pohCK751), P05067
[2] = target: APP 751 with the Swedish mutation (APPsw), P05067
[3] = target: MBP-C125sw (maltose-binding protein fused to the last 125 amino acids of APP, Swedish double mutation) [MBP: P0AEX9]
[4] = target: T1, P26-P4′sw substrate ((biotin)CGGADRGLTTRPGSGLTNIKTEEISEVNLDAEF) (not fully specified)
T1 chain: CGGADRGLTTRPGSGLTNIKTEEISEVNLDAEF

[5] = target: MBP-C125 (maltose-binding protein fused to the last 125 amino acids of APP), P05067
Chain of MBP-C125 (maltose-binding protein fused to the last 125 amino acids of APP), P05067 (P05067 whole entry, looked up, the tested form may be a part): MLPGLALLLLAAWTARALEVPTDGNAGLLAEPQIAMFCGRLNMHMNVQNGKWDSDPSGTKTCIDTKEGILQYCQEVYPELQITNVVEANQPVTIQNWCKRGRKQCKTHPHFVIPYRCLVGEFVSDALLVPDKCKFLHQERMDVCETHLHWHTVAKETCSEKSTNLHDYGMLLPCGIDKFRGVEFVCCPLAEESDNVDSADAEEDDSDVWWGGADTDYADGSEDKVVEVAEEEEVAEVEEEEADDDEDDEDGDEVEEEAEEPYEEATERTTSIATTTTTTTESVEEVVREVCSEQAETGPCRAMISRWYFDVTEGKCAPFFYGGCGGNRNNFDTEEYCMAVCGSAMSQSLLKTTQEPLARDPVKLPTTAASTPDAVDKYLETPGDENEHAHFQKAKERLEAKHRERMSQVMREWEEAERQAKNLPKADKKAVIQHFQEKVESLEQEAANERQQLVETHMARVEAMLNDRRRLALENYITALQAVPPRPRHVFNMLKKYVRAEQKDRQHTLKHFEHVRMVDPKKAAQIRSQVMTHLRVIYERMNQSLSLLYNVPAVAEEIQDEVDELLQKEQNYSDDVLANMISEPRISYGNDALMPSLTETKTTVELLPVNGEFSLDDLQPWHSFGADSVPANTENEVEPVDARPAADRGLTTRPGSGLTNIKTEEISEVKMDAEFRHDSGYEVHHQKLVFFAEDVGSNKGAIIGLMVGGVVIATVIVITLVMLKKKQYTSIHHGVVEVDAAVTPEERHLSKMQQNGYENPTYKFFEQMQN

Chain of APP 751 wild type (expressed from pohCK751), P05067 (P05067 whole entry, looked up): as the sequence (P05067 whole entry, looked up, the tested form may be a part) above
Chain of APP 751 with the Swedish mutation (APPsw), P05067 (P05067 whole entry, looked up, change not shown, the tested form may be a part): as the sequence (P05067 whole entry, looked up, the tested form may be a part) above

B1: full length β-secretase (clone 27; 1-501) (protein)
chain: TQHGIRLPLRSGLGGAPLGLRLPRETDEEPEEPGRRGSFVEMVDNLRGKSGQGYYVEMTVGSPPQTLNILVDTGSSNFAVGAAPHPFLHRYYQRQLSSTYRDLRKGVYVPYTQGKWEGELGTDLVSIPHGPNVTVRANIAAITESDKFFINGSNWEGILGLAYAEIARPDDSLEPFFDSLVKQTHVPNLFSLQLCGAGFPLNQSEVLASVGGSMIIGGIDHSLYTGSLWYTPIRREWYYEVIIVRVEINGQDLKMDCKEYNYDKSIVDSGTTNLRLPKKVFEAAVKSIKAASSTEKFPDGFWLGEQLVCWQAGTTPWNIFPVISLYLMGEVTNQSFRITILPQQYLRPVEDVATSQDDCYKFAISQSSTGTVMGAVIMEGFYVVFDRARKRIGFAVSACHVHDEFRTAAVEGPFVTLDMEDCGYNIPQTDESTLMTIAYVMAAICALFMLPLCLMVCQWRCLRCLRQQHDDFADDISLLK
- Aβ(x-40) production (ELISA of conditioned media) [1]: approximately 8-fold increase in Aβ(x-40) production
- Aβ(x-40) production (ELISA of conditioned media) [2]: approximate 2-fold increase in Aβ(x-40)

B2: β-secretase purified from human brain (naturally occurring) (protein)
chain: ETDEEPEEPGRRGSFVEMVDNLRGKSGQGYYVEMTVGSPPQTLNILVDTGSSNFAVGAAPHPFLHRYYQRQLSSTYRDLRKGVYVPYTQGKWEGELGTDLVSIPHGPNVTVRANIAAITESDKFFINGSNWEGILGLAYAEIARPDDSLEPFFDSLVKQTHVPNLFSLQLCGAGFPLNQSEVLASVGGSMIIGGIDHSLYTGSLWYTPIRREWYYEVIIVRVEINGQDLKMDCKEYNYDKSIVDSGTTNLRLPKKVFEAAVKSIKAASSTEKFPDGFWLGEQLVCWQAGTTPWNIFPVISLYLMGEVTNQSFRITILPQQYLRPVEDVATSQDDCYKFAISQSSTGTVMGAVIMEGFYVVFDRARKRIGFAVSACHVHDEFRTAAVEGPFVTLDMEDCGYNIPQTDESTLMTIAYVMAAICALFMLPLCLMVCQWRCLRCLRQQHDDFADDISLLK
- Specific Activity (MBP-C125sw assay), Affinity Eluate (nM/h/µg prot.) [3]: 258000
- Specific Activity (MBP-C125sw assay), Anion Exchange Pool (nM/h/µg prot.) [3]: 1.49e+06

B3: 452stop (recombinant β-secretase extending from position 1 to 452) (protein)
chain: TQHGIRLPLRSGLGGAPLGLRLPRETDEEPEEPGRRGSFVEMVDNLRGKSGQGYYVEMTVGSPPQTLNILVDTGSSNFAVGAAPHPFLHRYYQRQLSSTYRDLRKGVYVPYTQGKWEGELGTDLVSIPHGPNVTVRANIAAITESDKFFINGSNWEGILGLAYAEIARPDDSLEPFFDSLVKQTHVPNLFSLQLCGAGFPLNQSEVLASVGGSMIIGGIDHSLYTGSLWYTPIRREWYYEVIIVRVEINGQDLKMDCKEYNYDKSIVDSGTTNLRLPKKVFEAAVKSIKAASSTEKFPDGFWLGEQLVCWQAGTTPWNIFPVISLYLMGEVTNQSFRITILPQQYLRPVEDVATSQDDCYKFAISQSSTGTVMGAVIMEGFYVVFDRARKRIGFAVSACHVHDEFRTAAVEGPFVTLDMEDCGYNIPQTDEDYKDDDDK
- cleavage of substrate [4]: exhibited activity in cleaving the MBP-C125sw substrate as well as the P26-P4′ substrate
- cleavage of substrate [3]: exhibited activity in cleaving the MBP-C125sw substrate
- cleavage of substrate [5]: Both enzymes exhibited activity in cleaving β-secretase substrates such as MBP-C125

B4: FLp501 (full length recombinant β-secretase having a C-terminal flag sequence) (protein)
chain: TQHGIRLPLRSGLGGAPLGLRLPRETDEEPEEPGRRGSFVEMVDNLRGKSGQGYYVEMTVGSPPQTLNILVDTGSSNFAVGAAPHPFLHRYYQRQLSSTYRDLRKGVYVPYTQGKWEGELGTDLVSIPHGPNVTVRANIAAITESDKFFINGSNWEGILGLAYAEIARPDDSLEPFFDSLVKQTHVPNLFSLQLCGAGFPLNQSEVLASVGGSMIIGGIDHSLYTGSLWYTPIRREWYYEVIIVRVEINGQDLKMDCKEYNYDKSIVDSGTTNLRLPKKVFEAAVKSIKAASSTEKFPDGFWLGEQLVCWQAGTTPWNIFPVISLYLMGEVTNQSFRITILPQQYLRPVEDVATSQDDCYKFAISQSSTGTVMGAVIMEGFYVVFDRARKRIGFAVSACHVHDEFRTAAVEGPFVTLDMEDCGYNIPQTDESTLMTIAYVMAAICALFMLPLCLMVCQWRCLRCLRQQHDDFADDISLLKDYKDDDDK
- cleavage of substrate [5]: Both enzymes exhibited activity in cleaving β-secretase substrates such as MBP-C125
